Laboratory results: patent US5804688A, “Compounds and compositions for delivering active agents” (Emisphere Technologies, Inc., priority 1997, dated 1998)
Read-outs that look alike come from different tables or passages of the source.

Experiments:
[1] = rat, in vivo, 50 mg/kg
Procedure: (§1) Rats were administered, orally and by intracolonic instillation, dosing solutions of 1 mg/kg of interferon and no carrier.

[2] = In vivo interferon delivery in rats (serum interferon, ELISA); conditions: 1 mg/kg interferon, no carrier
Procedure: as §1

Compound | Mean peak serum interferon concentration [1] | Mean peak serum interferon concentration ([2]; intracolonic (IC)) | Mean peak serum interferon concentration ([2]; oral (PO))
O=C(O)CCCc1ccc(NC(=O)COc2ccccc2)cc1 [Compound 9] | 2611±695 | – | –
interferon | – | 79±100 | 1951±1857
